36 sequences from the supplement of paper PMC10567573 can be followed below.

± gives the standard deviation.

The data set in a line: protein stability index of a GFP-peptide fusion (GPS, HEK-293T) (PSI 1-6); higher = more stable. As to conditions: c terminus: a fixed tail appended.
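Also: 24-mer peptide tiles fused after GFP, lentivirally expressed, FACS-sorted into six equal bins by GFP/DsRed ratio, decoded by Illumina sequencing, PSI is the read-weighted mean bin number.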

In the case of SATNVTCYYQPAPYVSDGNFSNYY [TENT5C], the protein stability index is, setting by setting: (treatment: DMSO) 2.05 ± 0.29; (treatment: MLN4924 1 uM, 8 h) 2.14 ± 0.28.
On the same counts, the results for SCCMTEEIFGPVTCVVPFDSEEEV [ALDH8A1] are 4.71 ± 0.34 and 4.83 ± 0.27.
Take SCRELLRIADKFTQHNFQEVMESE [KLHL20]: the protein stability index was found to be 2.17 ± 0.14 (treatment: DMSO) and 2.19 ± 0.06 (treatment: MLN4924 1 uM, 8 h).
For SDAEAVSTRWEVIAEDGTKEIESQ [TAF7L] the same measures were 5.42 ± 0.12 and 5.48 ± 0.31.
Turning to SEAAIGGAMLGQTTSEEAVGGATP [HDAC6], the protein stability index by setting is: (treatment: DMSO) 5.31 ± 0.26; (treatment: MLN4924 1 uM, 8 h) 5.4 ± 0.17.
Turning to SEALASTRILKHSPESSRGQCGEN [GLIPR2], the protein stability index came out at 5.29 ± 0.21 (treatment: DMSO) and 4.93 ± 0.25 (treatment: MLN4924 1 uM, 8 h).
Regarding SEEAVQKLATCYFFTVEFGLCKQD [TPH1], the protein stability index reads like this: (treatment: DMSO) 2.3 ± 0.61; (treatment: MLN4924 1 uM, 8 h) 2.27 ± 0.13.
Regarding SEIPRGVRVALDYEAGQVTLHNAQ [TRIM15], the protein stability index is 4.45 ± 0.35 (treatment: DMSO) and 4.57 ± 0.11 (treatment: MLN4924 1 uM, 8 h).
As for SEKAMLRSRIEEQSQLICILKRRS [CCDC89], the protein stability index was determined as 3.07 ± 0.2 (treatment: DMSO) and 3.19 ± 0.15 (treatment: MLN4924 1 uM, 8 h).
Take SELRTKVQEQQKQLQDQDQKLLEQ [FBXO28]: the protein stability index was found to be 5.5 ± 0.19 (treatment: DMSO) and 5.481 ± 0.034 (treatment: MLN4924 1 uM, 8 h).
For SESRKPTVSIMEPGETRRNSYPRA [TRIM29] the same measures were 4.79 ± 0.12 and 4.43 ± 0.19.
With SESSLEMDDERYFNEMSAQGLRPR [CCDC6], the protein stability index came to 4.78 ± 0.2 (treatment: DMSO) and 4.85 ± 0.22 (treatment: MLN4924 1 uM, 8 h).
Take SFAQLKNLKWLDLKDNPLDPVLAK [LRRC59]: the protein stability index was 2.98 ± 0.096 (treatment: DMSO) and 2.96 ± 0.33 (treatment: MLN4924 1 uM, 8 h).
For SFMPLVIKVTSATSVNLGILTADL [SLC35F2], the protein stability index is, setting by setting: (treatment: DMSO) 2.7 ± 1; (treatment: MLN4924 1 uM, 8 h) 2.87 ± 0.49.
Consider SFRQGMHLTRHQRTHTGEKPYKCT [ZNF263], for which the protein stability index reads like this: (treatment: DMSO) 3.57 ± 0.65; (treatment: MLN4924 1 uM, 8 h) 3.7 ± 0.49.
SGAGGTGGPAGQAGRGGAAGTAGV [MYOZ1] showed a protein stability index (treatment: DMSO) of 5.07 ± 0.2 and a protein stability index (treatment: MLN4924 1 uM, 8 h) of 4.93 ± 0.17.
Regarding SGNDPFAPSEGSAEAAPELDLFAM [SNAP91], the protein stability index reads like this: (treatment: DMSO) 4.83 ± 0.2; (treatment: MLN4924 1 uM, 8 h) 4.89 ± 0.23.
As for SGRSGHNTRGTGSSSSGVLMVGPN [CSNK1G3], the protein stability index reads like this: (treatment: DMSO) 4.13 ± 0.24; (treatment: MLN4924 1 uM, 8 h) 4.18 ± 0.16.
SGTCSPLRHSFQKQQREKTRWLNS [ADD1]: the protein stability index runs as follows: (treatment: DMSO) 2.96 ± 0.26; (treatment: MLN4924 1 uM, 8 h) 3.11 ± 0.059.
In turn, SGYALAEDGKRCVAVDYCASENHG [MATN2] yielded a protein stability index (treatment: DMSO) of 4.28 ± 0.64 and a protein stability index (treatment: MLN4924 1 uM, 8 h) of 4.36 ± 0.21.
In the case of SHSNITGIVEVILGETKAYVFFEK [TRIB1], the protein stability index by setting is: (treatment: DMSO) 2.41 ± 1; (treatment: MLN4924 1 uM, 8 h) 1.9 ± 0.58.
For SIEEILEEQRVEQQTKLEAEKLKV [LSM1], the protein stability index reads like this: (treatment: DMSO) 5.11 ± 0.34; (treatment: MLN4924 1 uM, 8 h) 5.2 ± 0.22.
On to SIHCLGPIKLELLEPKANLQAALQ [VPS39], for which the protein stability index by setting is: (treatment: DMSO) 2.61 ± 0.34; (treatment: MLN4924 1 uM, 8 h) 2.45 ± 0.36.
Take SILTDNPTWIIDPIDGTTNFVHRF [IMPA1]: the protein stability index reads like this: (treatment: DMSO) 2.19 ± 0.26; (treatment: MLN4924 1 uM, 8 h) 2.12 ± 0.27.
On the same counts, the results for SINALLQAEVLSRQITSPVSGING [HNF4A] are 2.7 ± 0.13 and 2.67 ± 0.2.
In the case of SIVTAAKKDILLVNDHLLNFVRER [PDS5B], the protein stability index is, setting by setting: (treatment: DMSO) 2.25 ± 0.16; (treatment: MLN4924 1 uM, 8 h) 2.3 ± 0.27.
Take SKAAAGKMNLYESFAQATQLGDLH [INTS3]: the protein stability index reads like this: (treatment: DMSO) 3.63 ± 0.25; (treatment: MLN4924 1 uM, 8 h) 3.58 ± 0.23.
In the case of SKETRLTLMEEVLLLGLKDREGYT [GOLPH3], the protein stability index is 2.8 ± 0.22 (treatment: DMSO) and 2.75 ± 0.28 (treatment: MLN4924 1 uM, 8 h).
In the case of SKLSRKYVKAKKSIDKDEEFAGSS [FAN1], the protein stability index runs as follows: (treatment: DMSO) 4.84 ± 0.14; (treatment: MLN4924 1 uM, 8 h) 4.64 ± 0.31.
On the same counts, the results for SKRNIKKGAVPRSIPNLAEVKKKG [HDAC6] are 4.26 ± 0.47 and 4.46 ± 0.44.
For SKTEELNREVATNSELVQSGKSEI [KRT17] the same measures were 5.34 ± 0.22 and 5.06 ± 0.1.
As for SKVLSLQDLCCRAVVSCTPVHLVD [RAB40B], the protein stability index runs as follows: (treatment: DMSO) 3.01 ± 0.17; (treatment: MLN4924 1 uM, 8 h) 2.85 ± 0.32.
Turning to SLDFTKKILHTAWHPAENIIAIAA [PPP2R2C], the protein stability index by setting is: (treatment: DMSO) 2.58 ± 0.59; (treatment: MLN4924 1 uM, 8 h) 2.29 ± 0.31.
Regarding SLFSQALKDEEAKVLQLTVRCEAL [CCDC89], the protein stability index by setting is: (treatment: DMSO) 2.8 ± 0.26; (treatment: MLN4924 1 uM, 8 h) 2.76 ± 0.17.
On to SLLNKKADGVKPQTNSTKNSAAAT [CAMK2B], for which the protein stability index reads like this: (treatment: DMSO) 4.43 ± 0.055; (treatment: MLN4924 1 uM, 8 h) 4.34 ± 0.23.
Regarding SLLRPLNSLAALDLSGIQTSDAAF [ZER1], the protein stability index reads like this: (treatment: DMSO) 2.87 ± 0.15; (treatment: MLN4924 1 uM, 8 h) 2.9 ± 0.24.
